Data from paper PMC4660060, “The molecular architecture of the Dam1 kinetochore complex is defined by cross-linking based structural modelling” (Nature Communications, 2015).
Residue numbers refer to the chain shown, from its start. Numbers in names are those of the source.

Legend:
[1] = target: the molecule itself; assay: electron microscopy; cross-linked Dam1 complex on MTs examined by EM
[2] = target: the molecule itself; assay: TIRF microscopy, tracer residence time; GFP-tagged and unlabelled versions of the same mutant Dam1 complex mixed 1:100 to 2 nM in all (20 pM tracer), on immobilised MTs; BRB80, 0.8 mg/ml kappa-casein, 50 mM KCl, oxygen scavengers; concentrations that support oligomeric rings

B1: Dam1 complex (complex, yeast)
chain 1: MDSASKEETLEKLDQEITVNLQKIDSNLSFCFHKITQDIIPHVATYSEICERIMDSTEWLGTMFQETGLVNLQANAAAPVGNAPVKSLVSNNVGIFPTSAEEASRQSQTDNGPNEADSAVHVNRDVHSMFNNDSIDDFHTANITSTGQILKLPDSSDEDTGSEAVPSREQTDLTGEGHGGADDEQDESTIQRQSRKRKISLLLQQQYGSSSSMVPSPIVPNKMRKQLAHEEHINNDGDNDDENSNNIESSPLKQGHHHPKGQADDNNEGPDEEESTKEVPKPGTIIHFSTNR
chain 2: MMASTSNDEEKLISTTDKYFIEQRNIVLQEINETMNSILNGLNGLNISLESSIAVGREFQSVSDLWKTLYDGLESLSDEAPIDEQPTLSQSKTK
chain 3: MDSIDEQIAIKRKELQSLQKITSLTDGLKIQLTELNEQIKEMGMNADSVAQLMNNWDSIINNISQASLGLLQYAEGDYEIGPWKDSKKKESEQSNETGLEAQENDKNDEDNDEDEDLVPLPETMVRIRVDGNE
chain 4: MEHNLSPLQQEVLDKYKQLSLDLKALDETIKELNYSQHRQQHSQQETVSPDEILQEMRDIEVKIGLVGTLLKGSVYSLILQRKQEQESLGSNSK
chain 5: MENPHEQVQANILSRIIGNVKRLNESVAILNQELVTINNRNKNLEIMGAICDNYHSSVQFNLEATNNKKPPL
chain 6: MSEDKAKLGTTRSATEYRLSIGSAPTSRRSSMGESSSLMKFADQEGLTSSVGEYNENTIQQLLLPKIRELSDSIITLDSNFTRLNFIHESLADLNESLGSLLYGIMSNSWCVEFSQAPHDIQDDLIAIKQLKSLEDEKNNLVMELSNMERGIKRKKDEQGENDLAKASQNKQFNQPLFPSSQVRKYRSYDNRDKRKPSKIGNNLQVENEEDYEDDTSSEASFVLNPTNIGMSKSSQGHVTKTTRLNNNTNSKLRRKSILHTIRNSIASGADLPIENDNVVNLGDLHPNNRISLGSGAARVVNGPVTKNRNSMFSGRAERKPTESRHSVAKKTEKKINTRPPFR
chain 7: MSEQSQLDDSTIDKLIPQIFNEMRSNLNNTTNKFPKSTGGGASDNISANSNSIRSFNSITTQSLLKESESLDKITAMIKNVTAALKNNLPVYVNQVHEVCKSTNSILDSWINIHSQAGYIHKLMSDQTYLKLINDRLHNENVNTNDEDGSTLHNVIALKKKEILDLRQKLENRKGEKDAAPAKPPNQGLNPRYGVQSGRRPVPSAGISNNGRVRKTHVPASKRPSGIPRVTNRWTKPTASSSRKMFR
chain 8: MNANKQRQYNQLAHELRELQTNLQETTKQLDIMSKQCNENLVGQLGKVHGSWLIGSYIYYMEQMLGKTQ
chain 9: MTDALEQSVLALEGTVSVLKDSVESLKCANEPSTNLASTMLQTKRVFRLVPEYDVERSKLDLIEEVEPLVRTLGDKLRKSMGRMQRELDTLQQTYELNDLRLKKNISMDDDDALNSPDMGQEYEGRDADDVVMMASSTNEELEELKKLKEKKKQLENKLEILKQK
chain 10: MGESLDRCIDDINRAVDSMSTLYFKPPGIFHNAILQGASNKASIRKDITRLIKDCNHDEAYLLFKVNPEKQSVSRRDGKEGVFDYVIKRDTDMKRNRRLGRPGEKPIIHVPKEVYLNKDRLDLNNKRRRTATTSGGGLNGFIFDTDLIGSSVISNSSSGTFKALSAVFKDDPQIQRLLYALENGSVLMEEESNNQRRKTIFVEDFPTDLILKVMAEVTDLWPLTEFKQDYDQLYHNYEQLSSKLRFIKKEVLLQDDRLKTMSQYHPSSSHDVAKIIRKEKDEIRRLEMEIANLQE
notes: Ten different subunits; also called Dam1 kinetochore complex; free Dam1 complex; copies: + + + + + + + + +
Question: Does B1 bind [1]?
Answer: binds

B2: Dam1-GFP NP complex, phosphorylated by Ipl1 (Dam1p S257A, S265A, S292A, Ask1p S200A, Spc34p T199A; Dam1p S20 phosphorylated) (complex, yeast)
chain 1: B1 chain 1 with S200A
chain 2: B1 chain 2
chain 3: B1 chain 3
chain 4: B1 chain 4
chain 5: B1 chain 5
chain 6: B1 chain 6 with S257A, S265A, S292A
chain 7: B1 chain 7
chain 8: B1 chain 8
chain 9: B1 chain 9
chain 10: B1 chain 10 with T199A
modifications: phosphoserine at S20 (by Ipl1 kinase, nearly stoichiometric)
notes: GFP-tagged complex, detected by its GFP; In the tracer assay 20 pM of this complex met 2 nM of the same phosphorylated mutant complex without GFP; also called Dam1 NP phos; Dam1 NP; source: recombinant Dam1 complex (E. coli BL21 Rosetta, purified); phosphorylated with GST-Ipl1, GST-Sli15 (554-698) and 10 mM ATP, 90 min, 30 °C; copies: + + + + + + + + +
Question: With B2 as the protein, how does the “fold increase of the average residence time on MTs against single molecules” value [2] read?
Answer: 2 fold
